Results taken from patent publication US20190185570A1 (IGM BIOSCIENCES, published 2019).

B1: anti-DR5 IgM (antibody, V domains shown)
VH: EVQLVQSGGGVERPGGSLRLSCAASGFTFDDYGMSWVRQAPGKGLEWVSGINWNGGSTGYADSVKGRVTISRDNAKNSLYLQMNSLRAEDTAVYYCAKILGAGRGWYFDLWGKGTTVTVSS
VL: SSELTQDPAVSVALGQTVRITCQGDSLRSYYASWYQQKPGQAPVLVIYGKNNRPSGIPDRFSGSSSGNTASLTITGAQAEDEADYYCNSRDSSGNHVVFGGGTKLTVLG

How the values were obtained:
[1] = molecular target: Fc fusion protein of Human CTLA4 (human) (UniProt P16410); assay: BLI (Fortebio), human CTLA4 Fc fusion immobilized by amine reactive chemistry
Chain of Fc fusion protein of Human CTLA4 (human) (P16410 36-161 limits assumed): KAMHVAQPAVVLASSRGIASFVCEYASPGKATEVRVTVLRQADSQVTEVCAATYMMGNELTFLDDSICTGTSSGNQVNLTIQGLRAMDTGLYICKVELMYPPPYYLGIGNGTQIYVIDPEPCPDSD

DR5 = DR5 (UniProt O14763 56-440, limits assumed); assay: cell-based or functional assay

Molecule | Kd [1] | cytotoxic effect, cell viability of COLO205 cells (Cell-Titer Glo), fold against the corresponding IgG (DR5)
Anti CTLA4 IgG (BioLegend A3.B10.G1) (antibody) | 2 nM | 
B1 |  | > 1000 fold
